According to PMC10783122, “Loss of Bacteroides thetaiotaomicron bile acid-altering enzymes impacts bacterial fitness and the global metabolic transcriptome” (Microbiology Spectrum, 2023):

Key:
Assay in all cases: purified protein
Type in all cases: biochemical, Bacteroides thetaiotaomicron
Details in all cases: 5 mM NAD+, 10 mM MOPS, 37 °C, 0.2 nM enzyme
[1] = substrate: C[C@H](CCC(=O)O)[C@H]1CC[C@H]2[C@@H]3[C@H](O)C[C@@H]4C[C@H](O)CC[C@]4(C)[C@H]3C[C@H](O)[C@]12C
[2] = substrate: C[C@H](CCC(=O)O)[C@H]1CC[C@H]2[C@@H]3[C@H](O)C[C@@H]4C[C@H](O)CC[C@]4(C)[C@H]3CC[C@]12C
[3] = substrate: C[C@H](CCC(=O)NCCS(=O)(=O)O)[C@H]1CC[C@H]2[C@@H]3[C@H](O)C[C@@H]4C[C@H](O)CC[C@]4(C)[C@H]3CC[C@]12C
[4] = substrate: C[C@H](CCC(=O)NCC(=O)O)[C@H]1CC[C@H]2[C@@H]3[C@H](O)C[C@@H]4C[C@H](O)CC[C@]4(C)[C@H]3CC[C@]12C

B1: HSDHa (BT_1911), 7α-hydroxysteroid dehydrogenase (Bacteroides thetaiotaomicron VPI-5482) (protein)
chain: MKRFENKVVVITGAAGGIGEATTRRIVSEGGKVVIADLSQERADKLAAELTQAGADVRPIYFSATELQSCKELVDFAMKEYGQIDVLINNVGGTDPKRDLNIEKLDIDYFDEVFHLNLCCTMYLSQQVIPIMTTHGGGNIVNVASISGLTADANGTLYGASKAGVINLTKYIATQMGKKNIRCNAVAPGLVLTPAALDNLNEEVRNIFLGQCATPYLGEPEDVAATIAFLASNDARYITGQTIVVDGGLTIHNPTVELS
notes: full-length codon-optimized gene, pETite C-His, C-terminal hexahistidine tag, E. coli Rosetta (DE3) pLysS, cobalt resin purified
[1]
  Km: 649.2 ± 167.6 µM
  kcat: 4070 ± 195 s⁻¹
[2]
  Km: 203.4 ± 24.3 µM
  kcat: 4580 ± 375 s⁻¹
[3]
  Km: 301.2 ± 60.4 µM
  kcat: 4520 ± 681 s⁻¹
[4]
  Km: 342.2 ± 104.1 µM
  kcat: 4090 ± 292 s⁻¹
